Earlier results, collected in article PMC4289615.

Biological target: IL-2Rβγ (intermediate-affinity IL-2 receptor) (Homo sapiens) (UniProt P14784)
UniProt P14784, sequence (P14784 27-240, chain 1 of 2): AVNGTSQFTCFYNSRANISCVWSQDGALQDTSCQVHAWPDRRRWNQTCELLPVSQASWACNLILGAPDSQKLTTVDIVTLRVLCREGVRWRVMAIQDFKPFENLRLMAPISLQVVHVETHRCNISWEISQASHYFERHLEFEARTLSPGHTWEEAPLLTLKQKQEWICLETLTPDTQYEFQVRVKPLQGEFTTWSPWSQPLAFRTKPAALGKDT
UniProt P14784, sequence (P31785 23-262, chain 2 of 2, further chain): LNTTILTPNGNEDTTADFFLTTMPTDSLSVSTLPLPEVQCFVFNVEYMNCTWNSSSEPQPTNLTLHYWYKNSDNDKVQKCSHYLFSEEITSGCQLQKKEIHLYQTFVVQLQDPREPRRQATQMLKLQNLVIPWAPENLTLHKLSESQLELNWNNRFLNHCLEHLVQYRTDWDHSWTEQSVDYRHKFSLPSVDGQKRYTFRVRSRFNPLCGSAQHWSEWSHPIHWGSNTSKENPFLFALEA

IL-2, sequence (P60568 21-153): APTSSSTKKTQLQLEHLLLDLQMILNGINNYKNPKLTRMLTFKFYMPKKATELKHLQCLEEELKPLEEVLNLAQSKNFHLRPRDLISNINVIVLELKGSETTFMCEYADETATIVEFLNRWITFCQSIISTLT

In the case of IL-2 (from UniProt P60568), the Kd is given as 1 nM.
